From the supplement of paper PMC10567573

B1: RHOBTB3 (parent)
chain: VSHVFMLLFNVKSPTDIQDSSIIR

Variants of: B1
Experiment: protein stability index of a GFP-peptide fusion (GPS, HEK-293T) (PSI 1-6); higher = more stable
Conditions: c terminus: a fixed tail appended
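Also: lentivirally expressed fusions sorted by FACS into six bins by GFP to DsRed ratio, PSI derived from sequencing read proportions per bin multiplied by bin number.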

Point of comparison: VSHVFMLLFNVKSFTDIQDSSIIR, protein stability index 3.75. Against it:
- VSHVFMLLFNVKSPTEIQDSSIIR — lower, 2.96
- VSHVFMLLFNVKSPTRIQDSSIIR — higher, 3.86
- VSHVFMLLFNVKSPTYIQDSSIIR — lower, 3.61
- VSHVFMLLFNVKSPTFIQDSSIIR — lower, 1.93
- VSHVFMLLFNVKSPTCIQDSSIIR — lower, 2.82
- VSHVFMLLFNVKSPTHIQDSSIIR — lower, 3.02
- VSHVFMLLFNVKSPTAIQDSSIIR — lower, 2.52
- VSHVFMLLFNVKSPTTIQDSSIIR — lower, 2.99
- VSHVFMLLFNVKSPTSIQDSSIIR — lower, 2.63
- VSHVFMLLFNVKSPTNIQDSSIIR — higher, 3.77
- VSHVFMLLFNVKSPTMIQDSSIIR — the same, 3.75
- VSHVFMLLFNVKSPTLIQDSSIIR — lower, 2.16
- VSHVFMLLFNVKSPLDIQDSSIIR — lower, 2.3
- VSHVFMLLFNVKSPRDIQDSSIIR — higher, 4.51
- VSHVFMLLFNVKSPCDIQDSSIIR — lower, 3.31
- VSHVFMLLFNVKSPYDIQDSSIIR — lower, 2.63
- VSHVFMLLFNVKSPFDIQDSSIIR — lower, 3.38
- VSHVFMLLFNVKSPVDIQDSSIIR — lower, 3.4
- VSHVFMLLFNVKSPKDIQDSSIIR — higher, 5.21
- VSHVFMLLFNVKSPNDIQDSSIIR — lower, 3.26
- VSHVFMLLFNVKSPSDIQDSSIIR — higher, 5.07
- VSHVFMLLFNVKSPIDIQDSSIIR — lower, 2.23
- VSHVFMLLFNVKSPWDIQDSSIIR — lower, 1.62
- VSHVFMLLFNVKSPGDIQDSSIIR — lower, 2.76
- VSHVFMLLFNVVSPTDIQDSSIIR — higher, 4.26
- VSHVFMLLFNVRSPTDIQDSSIIR — lower, 3.32
- VSHVFMLLFNVQSPTDIQDSSIIR — lower, 2.78
- VSHVFMLLFNVWSPTDIQDSSIIR — higher, 4.11
- VSHVFMLLFNVYSPTDIQDSSIIR — lower, 1.81
- VSHVFMLLFNVTSPTDIQDSSIIR — lower, 1.98
- VSHVFMLLFNVNSPTDIQDSSIIR — lower, 1.99
- VSHVFMLLFNVKEPTDIQDSSIIR — lower, 2.99
- VSHVFMLLFNVKHPTDIQDSSIIR — lower, 2.37
- VSHVFMLLFNVKKPTDIQDSSIIR — lower, 2.17
- VSHVFMLLFNVKDPTDIQDSSIIR — lower, 2.36
- VSHVFMLLFNVKFPTDIQDSSIIR — lower, 3.32
- VSHVFMLLFNVKYPTDIQDSSIIR — lower, 2.31
- VSHVFMLLFNVKCPTDIQDSSIIR — higher, 4.63
- VSHVFMLLFNVKTPTDIQDSSIIR — higher, 3.82
- VSHVFMLLFNVKIPTDIQDSSIIR — higher, 4.29
- VSHVFMLLFNVKMPTDIQDSSIIR — lower, 3.52
- VSHVFMLLFNVKLPTDIQDSSIIR — lower, 3.37
- VSHVFMLLFNVKSPTDHQDSSIIR — lower, 2.01
- VSHVFMLLFNVKSPTDSQDSSIIR — lower, 1.18
- VSHVFMLLFNVKSPTDPQDSSIIR — lower, 2.88
- VSHVFMLLFNVKSPTDLQDSSIIR — lower, 2.92
- VSHVFMLLFNVKSPTDKQDSSIIR — lower, 1.51
- VSHVFMLLFNVKSPTDRQDSSIIR — lower, 3.58
- VSHVFMLLFNVKSPTDCQDSSIIR — lower, 3.7
- VSHVFMLLFNVKSPTDEQDSSIIR — lower, 1.9
- VSHVFMLLFNVKSPTDWQDSSIIR — lower, 3.63
- VSHVFMLLFNVKSPTDYQDSSIIR — lower, 1.66
- VSHVFMLLFNVKSPTDTQDSSIIR — lower, 2.71
- VSHVFMLLFNVKSPTDNQDSSIIR — lower, 2.1
- VSHVFMLLFNVKSPTDQQDSSIIR — lower, 1.58
- VSHVFMLLFNVKSPTDVQDSSIIR — lower, 2.81
- VSHVFMLLFNVKSGTDIQDSSIIR — higher, 4.07
- VSHVFMLLFNVKSETDIQDSSIIR — lower, 2.14
- VSHVFMLLFNVKSMTDIQDSSIIR — lower, 1.72
- VSHVFMLLFNVKSHTDIQDSSIIR — lower, 2.54
- VSHVFMLLFNVKSCTDIQDSSIIR — higher, 5.86
- VSHVFMLLFNVKSYTDIQDSSIIR — higher, 3.96
- VSHVFMLLFNVKSVTDIQDSSIIR — lower, 3.52
- VSHVFMLLFNVKSLTDIQDSSIIR — lower, 2.04
- VSHVFMLLFNVKSKTDIQDSSIIR — lower, 2.58
- VSHVFMLLFNVKSDTDIQDSSIIR — lower, 2.34
- VSHVFMLLFNVKSITDIQDSSIIR — lower, 3.62
- VSHVFMLLFNVKSATDIQDSSIIR — lower, 3.26
- VSHVFMLLFNVKSSTDIQDSSIIR — lower, 3.49
- VSHVFMLLFNVKSWTDIQDSSIIR — lower, 3.15
- VSHVFMLLFNVKSPTDIQLSSIIR — lower, 1.89
- VSHVFMLLFNVKSPTDIQFSSIIR — lower, 2.28
- VSHVFMLLFNVKSPTDIQHSSIIR — lower, 3.04
- VSHVFMLLFNVKSPTDIQNSSIIR — lower, 2.96
- VSHVFMLLFNVKSPTDIQISSIIR — lower, 3.28
- VSHVFMLLFNVKSPTDIQASSIIR — lower, 3.48
- VSHVFMLLFNVKSPTDIQESSIIR — lower, 3.13
- VSHVFMLLFNVKSPTDIQKSSIIR — lower, 2.3
- VSHVFMLLFNVKSPTDIQMSSIIR — higher, 4.57
- VSHVFMLLFNVKSPTDIWDSSIIR — lower, 3.42
- VSHVFMLLFNVKSPTDICDSSIIR — lower, 2.77
- VSHVFMLLFNVKSPTDIVDSSIIR — lower, 3.53
- VSHVFMLLFNVKSPTDITDSSIIR — lower, 2.57
- VSHVFMLLFNVKSPTDIPDSSIIR — lower, 3.69
- VSHVFMLLFNVKSPTDIYDSSIIR — higher, 3.89
- VSHVFMLLFNVKSPTDIFDSSIIR — lower, 2.75
- VSHVFMLLFNVKSPTDIADSSIIR — lower, 3.32
- VSHVFMLLFNVKSPTDIEDSSIIR — lower, 2.79
- VSHVFMLLFNVKSPTDINDSSIIR — lower, 1.19
- VSHVFMLLFNVKSPTDIHDSSIIR — lower, 2.48
- VSHVFMLLFNVKSPTDIDDSSIIR — higher, 4.62
- VSHVFMLLFNVKSPTDIKDSSIIR — lower, 2.82
- VSHVFMLLFNVKSPTDISDSSIIR — lower, 3.12
